Key:
[1] = target: alpha-synuclein in Lewy Body Disease (LBD/DLB) brain (human) (UniProt P37840); assay: dot blot signal on LBD brain extract over control brain extract
[2] = target: alpha-synuclein physiological tetramer (UniProt P37840); assay: SPR, antibody immobilized, steady state fitting
[3] = target: alpha-synuclein monomer (UniProt P37840); assay: SPR, antibody immobilized, steady state fitting
[4] = target: alpha-synuclein sonicated preformed fibrils (soluble fibrils) (human) (UniProt P37840); assay: SPR, antibody immobilized, kinetic fitting, 1:1 model
[5] = target: alpha-synuclein oligomers (UniProt P37840); assay: as above

| Substance | Fold of reactivity LBD vs. Control (LBD / Control) [1] | Kd [2] | Kd [3] | Kd [4] | koff [4] | kon [4] | Kd [5] | koff [5] | kon [5] |
| --- | --- | --- | --- | --- | --- | --- | --- | --- | --- |
| Syn-F1 aggregation/fibril preferring antibody | 3.8 fold |  |  |  |  |  |  |  |  |
| pan-Alpha Syn Antibody (4D6) (Biolegend) | 2.2 fold |  |  |  |  |  |  |  |  |
| NI-202.12F4 (Creative Biolabs) (antibody) |  | 14000 nM | 8600 nM | 12 nM | 3.75e-05 s⁻¹ | 3100 M⁻¹ s⁻¹ | 131 nM | 0.001 s⁻¹ | 7640 M⁻¹ s⁻¹ |
| Prasinezumab, Human IgG, PRX002/RG7935, Creative Biolabs (antibody) |  | 50 nM | 100 nM | 11 nM | 0.000209 s⁻¹ | 19500 M⁻¹ s⁻¹ | 72 nM | 0.00181 s⁻¹ | 25100 M⁻¹ s⁻¹ |

From patent publication US20230051538A1
